Measurements taken from IntAct's records for PubMed 20676133.

B1: RING finger protein 11 (Homo sapiens), Q9Y3C5 (parent)
chain: MGNCLKSPTSDDISLLHESQSDRASFGEGTEPDQEPPPPYQEQVPVPVYHPTPSQTRLATQLTEEEQIRIAQRIGLIQHLPKGVYDPGRDGSEKKIRECVICMMDFVYGDPIRFLPCMHIYHLDCIDDWLMRSFTCPSCMEPVDAALLSSYETN

Variants of: B1
Conditions: with itch_human ITCH

Row | Variant | effect of a mutation on the interaction
1 | Y40A | disrupting interaction

Variants of: B1
Conditions: with nedd4_human NEDD4, P46934
nedd4_human NEDD4, P46934, sequence (P46934 whole entry): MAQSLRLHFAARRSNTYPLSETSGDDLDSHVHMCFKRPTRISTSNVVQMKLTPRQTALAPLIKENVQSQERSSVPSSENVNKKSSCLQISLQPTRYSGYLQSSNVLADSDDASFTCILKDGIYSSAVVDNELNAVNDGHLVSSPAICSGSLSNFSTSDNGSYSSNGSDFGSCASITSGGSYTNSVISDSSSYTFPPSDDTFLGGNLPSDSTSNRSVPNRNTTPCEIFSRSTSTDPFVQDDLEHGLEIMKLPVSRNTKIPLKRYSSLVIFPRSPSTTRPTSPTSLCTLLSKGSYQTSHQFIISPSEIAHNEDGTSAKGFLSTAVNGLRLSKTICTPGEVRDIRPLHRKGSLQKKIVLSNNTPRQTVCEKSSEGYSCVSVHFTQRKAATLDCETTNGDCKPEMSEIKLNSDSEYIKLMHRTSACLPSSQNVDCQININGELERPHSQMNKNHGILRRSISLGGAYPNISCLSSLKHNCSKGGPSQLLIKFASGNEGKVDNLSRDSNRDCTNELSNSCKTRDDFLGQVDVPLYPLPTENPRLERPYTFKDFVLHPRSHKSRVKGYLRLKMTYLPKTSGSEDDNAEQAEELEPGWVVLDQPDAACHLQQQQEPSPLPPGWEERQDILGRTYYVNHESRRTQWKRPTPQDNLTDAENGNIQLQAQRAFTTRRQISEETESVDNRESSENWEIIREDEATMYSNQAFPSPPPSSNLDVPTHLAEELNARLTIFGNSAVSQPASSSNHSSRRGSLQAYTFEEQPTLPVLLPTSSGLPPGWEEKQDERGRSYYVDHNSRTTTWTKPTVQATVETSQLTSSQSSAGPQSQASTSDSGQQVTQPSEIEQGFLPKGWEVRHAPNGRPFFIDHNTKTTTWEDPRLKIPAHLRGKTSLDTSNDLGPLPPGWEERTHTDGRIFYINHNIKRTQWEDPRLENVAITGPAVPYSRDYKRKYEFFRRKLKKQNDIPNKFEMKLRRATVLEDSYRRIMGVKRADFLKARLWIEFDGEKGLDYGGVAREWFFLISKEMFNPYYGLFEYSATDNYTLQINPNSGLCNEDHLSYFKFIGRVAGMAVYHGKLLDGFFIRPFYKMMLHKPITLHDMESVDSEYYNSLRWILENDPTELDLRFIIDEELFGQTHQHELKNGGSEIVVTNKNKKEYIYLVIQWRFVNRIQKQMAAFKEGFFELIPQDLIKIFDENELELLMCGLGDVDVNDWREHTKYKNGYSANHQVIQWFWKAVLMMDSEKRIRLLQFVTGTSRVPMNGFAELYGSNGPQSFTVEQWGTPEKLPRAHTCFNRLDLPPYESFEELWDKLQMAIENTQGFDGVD

Row | Variant | effect of a mutation on the interaction
2 | Y40A | disrupting interaction

Variants of: B1
Conditions: with smuf2_human SMURF2, Q9HAU4
smuf2_human SMURF2, Q9HAU4, sequence (Q9HAU4 whole entry): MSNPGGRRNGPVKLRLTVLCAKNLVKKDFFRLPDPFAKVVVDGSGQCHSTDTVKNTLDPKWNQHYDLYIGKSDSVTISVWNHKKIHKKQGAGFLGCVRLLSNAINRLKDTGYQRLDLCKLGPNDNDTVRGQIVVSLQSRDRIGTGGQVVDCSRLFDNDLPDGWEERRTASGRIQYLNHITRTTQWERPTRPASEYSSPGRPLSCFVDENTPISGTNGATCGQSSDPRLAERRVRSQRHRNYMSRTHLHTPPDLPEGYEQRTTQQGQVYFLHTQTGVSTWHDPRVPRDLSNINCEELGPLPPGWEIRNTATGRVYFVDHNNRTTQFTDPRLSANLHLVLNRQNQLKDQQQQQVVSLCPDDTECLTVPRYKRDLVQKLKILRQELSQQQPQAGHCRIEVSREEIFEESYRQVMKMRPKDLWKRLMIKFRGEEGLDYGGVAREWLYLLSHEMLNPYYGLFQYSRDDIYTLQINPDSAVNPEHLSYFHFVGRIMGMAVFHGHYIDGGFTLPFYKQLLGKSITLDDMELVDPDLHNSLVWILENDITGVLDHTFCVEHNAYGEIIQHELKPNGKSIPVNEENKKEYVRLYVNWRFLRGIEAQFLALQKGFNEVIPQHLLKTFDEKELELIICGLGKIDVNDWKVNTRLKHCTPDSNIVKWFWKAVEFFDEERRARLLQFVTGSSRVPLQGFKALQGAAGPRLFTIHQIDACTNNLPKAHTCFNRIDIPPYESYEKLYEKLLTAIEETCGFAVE

Row | Variant | effect of a mutation on the interaction
3 | Y40A | disrupting interaction
